In paper PMC4838890, “Dynamic and flexible H3K9me3 bridging via HP1β dimerization establishes a plastic state of condensed chromatin” (Nature Communications, 2016):
Read-outs that look alike come from different tables or passages of the source.

Columns and labels:
H3K9me3 peptide = molecular target: T1, H3K9me3 peptide (Homo sapiens, UniProt P68431); assay: ITC, H3K9me3 peptide; assay type: binding; conditions: for Kd / N (stoichiometry of interaction): ITC; for Kd: 10 mM triethanolamine pH 7.5, 0.1 mM EDTA, 25°C, read-out: Kd (apparent dissociation constant); for N (stoichiometry of interaction): pH 7.5, 25°C
T1 construct: C-terminally biotinylated histone H3 peptides (aa 1–20)
Method: ITC measurements were performed on a iTC200 calorimeter (Microcal, Malvern, UK) at 25°C in binding buffer (10 mM triethanolamine (pH 7.5), 20 or 150 mM NaCl, 0.1 mM EDTA). Reaction heats were recorded by sequences of 37 injections of 1.8 mM hHP1β, spaced at 120 s intervals, into 250 μl of 60 μM H3 peptides, nucleosomes or oligonucleosomal arrays under constant stirring at 1,000 r.p.m. (injection #1–10: 0.5 μl each; injection #11–32: 1 μl each; injection #33–37: 2 μl each). Heats of dilution, obtained by the titration of hHP1β into buffer, were substracted from raw data before analysis. Raw data were integrated, normalized and the apparent heat change (Δq) of the reaction was plotted against the molecular ratio using the Origin software. For the determination of apparent enthalpy changes (ΔHapp), the molar association constant (KA), and the stoichiometry (n) of the interaction, non-linear least-square fitting of the Δq values was performed by the Origin software using a binding model of one set of identical binding sites.
Figure S4 Hiragami-Hamada et al. […]
Supplementary Figure 4: Quantitative analysis of interaction of hHP1β with H3K9me3-peptides and
(a) ITC measurements of H3K9me3-peptide/hHP1β WT interaction at 20 mM NaCl (left) and 150 mM
NaCl (right). Upper panels, raw data of heat release upon stepwise injection of recombinant protein into
solution of peptide; lower panels, plots of integrated heats of protein injections vs. molar ratio of hHP1β
WT per peptide calculated by MicroCal software. Injections #1-10: 0.5 µl; injections #11-32: 1 µ l; […]

H3K9me3 mononucleosome = assay: SPR, immobilized (symmetric) H3K9me3 mononucleosome; assay type: binding, Xenopus laevis
Method: SPR measurements were performed on a Biacore 2000 instrument (GE Healthcare, Buckinghamshire, UK) at 298 K in 10 mM triethanolamine (pH 7.5), 150 mM NaCl, 0.1 mM EDTA, 1 mM DTT, 0.005% (v/v) Tween-20. Biotinylated ligands were immobilized on streptavidin-coated sensor chips SA (GE Healthcare, Buckinghamshire, UK). Before immobilization, sensor chips were conditioned as described by the manufacturer. To obtain low surface densities (5–24 RU), 5 nM biotinylated H3 peptide was injected at a low rate of 10 μl min^−1 using varying contact times. High surface densities (>700 RU) were prepared by injecting […] peptide (10 μl min^−1) until the SA surface was saturated. Peptide-containing chips were regenerated by applying three short pulses of 0.05% (w/v) SDS followed by an injection of 1.5 M NaCl for baseline stabilization. For binding assays, hHP1β proteins were injected at […] (serial twofold dilutions) for 2 min (30 μl/min). Dissociation was recorded for up to 5 min. A streptavidin surface without ligands served as reference. In addition, blank runs were performed for double referencing. Data evaluation was performed by steady-state analysis assuming a Langmuir 1:1 binding model using BIAevaluation 4.1 and Prism 5.04 (GraphPad, CA, USA) software. Binding to the unmodified peptides was analysed with maximum binding (RUmax) set to the corresponding values obtained with the modified peptides.
Figure S8 Hiragami-Hamada et al. […]
Supplementary Figure 8: hHP1β binds nucleosomes as dimer. […]
RU. Injection series are from 0.024 to 50 µM protein concentration. […]
(f) SPR response traces of injection of hHP1β WT into Biacore cells containing biotinylated, symmetrically modified H3K9me3-mononucleosomes (i.e. both H3-tails carry H3K9me3) immobilized […]
(also on this page, place not known: dimer . hHP1 β H3K9me3 - se nsory ( b) site -specific ( b) hHP1 β ( d) site -specific hHP1 β modifi ed H3K9me3 -mononucleosomes H3 -tails -30 -50 -8 -4 200 -10 110 -50 -10 -30 [μM] [μM] -10 190 150 -10 110 200 -10 110 μl/min μl/min μl/min -50 150 response [RU] response [RU] response [RU] response [RU] response [RU] [μM] 10 50 response [RU]40 0 0 [μM] 10 30 50 response [RU] 40 0 0 40 [μM] 10 30 50 response [RU] 140 40 0 120 0 40 response [RU] response [RU] response [RU] Kd Kd μM Kd μM 0.8 0.6 0.4 0.2 0 1 1.0 0.8 0.6 0.4 0.2 0.0 mass fraction) […]
on a sensory chip via covalently coated streptavidin. Immobilized mononucleosome was at 950 RU.
Injection series are from 0.024 to 50 µM protein concentration.
(g) Blot of signal over concentration of the titration in (f) to deduce an apparent Kd value. For reference, fitting of the data to a one and two site- specific binding model is shown.
(h) Same analysis as in (f) but with hHP1β I161A. […]

[1] = SPR titration 0.024 to 50 µM, symmetrically modified mononucleosome at 950 RU, one site-specific binding, read-out: apparent Kd (Supplementary Fig. 8g,i)
[2] = SPR, 150 mM NaCl, pH 7.5, 298 K, steady-state, WT value based on fitting to a one site-specific binding model, read-out: Kd (apparent dissociation constant)

Substance | Kd (H3K9me3 peptide; 20 mM NaCl) | N (stoichiometry of interaction) (H3K9me3 peptide; 20 mM NaCl) | Kd (H3K9me3 peptide; 150 mM NaCl) | N (stoichiometry of interaction) (H3K9me3 peptide; 150 mM NaCl) | Kd (H3K9me3 mononucleosome; [1]) | Kd (H3K9me3 mononucleosome; [2]) | binding to H3K9me3 peptide relative to WT (H3K9me3 peptide; Table 1)
hHP1β WT: recombinant human heterochromatin protein 1β (GenBank NM_001127228), 185 aa | 1.4 ± 0.6 µM | 0.9±0.0 | 3.3 ± 0.2 µM | 1.0±0.0 | 0.92 µM | 1 ± 0.2 µM | 
hHP1β I161A: CSD point mutant of hHP1β incapable of dimerization | 1.1 ± 0.5 µM | 1.0±0.1 | 3.4 ± 0.2 µM | 0.9±0.0 | 4.3 µM | 5.2 ± 0.6 µM | bound an H3K9me3-peptide as efficiently as hHP1β wild type
